Results: the DeepSol protein solubility set

Test: soluble on expression in E. coli; label from the status in PepcDB or PDB records

| Sequence | soluble on expression in E. coli |
| --- | --- |
| MGSDKIHHHHHHEHNRSAVTTEGGYYDTEKGFESLINSCYTPLRFWGGKSAAMAFSETGTDILAPGGGCDYPAIVSYQNDFDGTNPISKEYYDRFYKAINFCNTAIYHVKNVPFSDKTLTSKREAEVRFLRAYYYWILVETFGDTYYTDQPSESIVMAPRKTSVAEIYTHIFEDLDFCMDSRLSVAQADGGRVTMWAAKALKARLLLTRASELNDKALYEQAYTLAKEVIDNGPFELSKDFASVFDMENSDGNGNKEVIWYIDYSSTNQLYNQEMDNDIIRSGGNHTHLIFCMKYDDQPGMVRSIEYGRPFNHYMPTRYLLDCYDENIDQRFEVTFRSLWKANGGKTGDNYPYMVQGDTAIWITKDVVPQVKRQWAKGRYQILDRTDIYHEDGSVKSQKQCMPISKFEDPTRATVNEDRGTRDAFIIRVAEMYLIVAEAGAKAGKADALAYMNILRAQRAKAGKEEAMKVAQSDIEDIDFILDERARELVGEQLRWFDLKRMGSEIFIRRIKSGNPDAGKNVKAYHMLRPFPQTLLDAITNKDEFLQNEGYK | not soluble |
| MAHHHHHHMMPRSENQKEEEEWELHPLFLSKIPNKKDIDKNPALSALITLINEEEEKEVFSYEPRRKNLKKKITEKGQIIYKKDRRNLYEPYQQNKNDKINYFEKKNFGGNADISKEEEVLDVEMDEEGTTVTTAEQGGDHSSQNVSNNQEATDQTSIGEVLVCLSMMNLKQ | soluble |
| MAHHHHHHMCAYASILVVSAVHLCFCYRSHTSQSMTPAKALRLSSLPLATAWWRQHGLADRLEGFRACRQPTPRQRPLQRTADGGVSLGWAGLLAGAEQSRTSSITTATDRPPDLPLVLVSACLLSYPVTYRGTHTNLPASLRPTPLLFLTEVLFKELGLVQCVPVCPEVQWLGLPVPRVPLRLVRGSRGTDDARQRGSGWAAAQHSSSATLPSLSMSASDSVAIKGEREARYLVESSAEDHVLLRCDAPNDTFAEQSPSPQLHSAFLAQLVQDLKAVDGIILKSYSPSCGVRDARLYEEAVTSPPSSPCDQHACNACERAGKPTSASFIGRRPAASASAQRRFDLVDGFFTQQLRDFLTSMHGVGGERRADARCHSEAAAPVITCDRLLTDFYTEERLRRSPLAGKVKKRHVAGNASEAAPHLTSLDSFMESVLQHRDWRVSQHRC | not soluble |
| MAQNESPAEQLFAAIGLLRRHTRRRVGRPWPETPLTGSQVELVRLLRRRPGTSVAEAAAALGLAANTVSTLVRQLTDAGLVERVRDESDRRVARLALTDDARAQVERWRDRRNIEVAAAFDGLSAEDRKAIESAIPAITRLAGALHPDQAGPSDQEVVR | not soluble |
| MQSTPKPFDIEQPSLRVFLPAPELATGRAVVACPGGGYSGLAVNHEGYDWAPYFNKQGIALIVLKYRMPKGDRTLPISDAEAAMKMVRDSADVWNLNPNDIGIMGSSAGGHLASTIATHAPEALRPNFQILFYPVITMDKSFTHMGSHDNLLGKDASADLEKEFSNEKQVTKETPRAFIVYSDDDKVVPPANGVNYYLALNKKGVPSVLHIYPTGGHGWGIREDFLEHHHHHH | not soluble |
| MARKTKPLTDTEIKAAKPKDADYQLYDGDGLTLLIKSSGSKLWQFRYYRPLTKQRTKQSFGAYPAVSLSDARKLRAESKVLLAKDIDPQEHQKEQVRNSQEAKTNTFLLVAERWWNVKKTSVTEDYADDIWRSLERDIFPAIGDISITEIKAHTLVKAVQPVQARGALETVRRLCQRINEVMIYAQNTGLIDAVPSVNIGKAFEKPQKKNMPSIRPDQLPQLMHTMRTASISMSTRCLFMWQLLTITRPAEAAEARWDEIDFNASEWKIPAARMKMNRDHTVPLSDGALAILEMMKPLSGGREFIFPSRIKPNQPMNSQTVNAALKRAGLGGVLVSHGLRSIASTALNEEGFPPDVIEAALAHVDKNEVRRAYNRSDYLEQRRPMMQWWADLVKAADSGSIVLTHLSKIRLVG | soluble |
| MALLLVMGIPASGKSTFRRKIQTAHRELLESTSFDDFRMMRTRSSDKNARQTRKSFECHVESCISESTSKIYVIEDIFYLKSMRHPFQKIAKRHGLQFGIIFLKVGIVEALRRNSHRTGIEKQKNETIRKIFEKMEDPDEILENSIVLETDEVEIDVEVVMNKLKFDFTAKKPIVPEVSLKKSHIQKPPPPSKLESLDVLTRRLVSELMQNDKTMNGRKLSDARKKLLIDLSGNLEISNENDPKFLYDLKLKLIEFYDK | not soluble |
| MGSDKIHHHHHHMKITTKQVGARMREARKKKKYTLRYLANKIGLSSGSTISNWELGLNLPNKRYLKKIAKACDTTVDWLLYGDFDRFVRQLLKENFQNKQLLKPPFFTQLMGRLSEEQLSYHDSLKIMIQAQKLQQSFYAFPLTVEAPSHSQESISIYEPTTAEEQSDQSYYHPFILSELHELFTHSQNPELDYSLIIAFLPLLKVDQLTEPQKEVLLAIFKRMNSFKDQTLLNEFFVELQYLL | not soluble |
| MTAKPTVFVVDDDMSVREGLRNLLRSAGFEVETFDCASTFLEHRRPEQHGCLVLDMRMPGMSGIELQEQLTAISDGIPIVFITAHGDIPMTVRAMKAGAIEFLPKPFEEQALLDAIEQGLQLNAERRQARETQDQLEQLFSSLTGREQQVLQLTIRGLMNKQIAGELGIAEVTVKVHRHNIMQKLNVRSLANLVHLVEKYESFERGVS | soluble |
| MSLNKKIIFFDIDGTLLVHNGKESTIPYSTKEALKKLKEKGHNLFICSGRPIRFAIQEFQEMVDGYICCNGTYIVYNGKCIYNKLIDKDTLKYLIKEFCKLGISASFSGAYNGYSYNMSSEKIHQMNRFYKTENPYILDNWNIEEIEANNVDVFFKNNEHMEKCIKYLEHKLIFNTHKPYLSADVSFKNWDKSKGIEYLVKYMKRDMKDTMAFGDGKNDITMLKTVNIGIAMGNAVDEVKNKADMVTDSAADDGIYNALNKLHLIEGHHHHHH | soluble |
| KGKLPPVVHGTTPFVGHIIQFGKDPLGFMLKAKKKYGGIFTMNICGNRITVVGDVHQHSKFFTPRNEILSPREVYSFMVPVFGEGVAYAAPYPRMREQLNFLAEELTVAKFQNFAPSIQHEVRKFMKANWNKDEGEINILDDCSAMIINTACQCLFGEDLRKRLDARQFAQLLAKMESCLIPAAVFLPWILKLPLPQSYRCRDARAELQDILSEIIIAREKEEAQKDTNTSDLLAGLLGAVYRDGTRMSQHEVCGMIVAAMFAGQHTSTITTTWSLLHLMDPRNKRHLAKLHQEIDEFPAQLNYDNVMEEMPFAEQCARESIRRDPPLVMLMRKVLKPVQVGKYVVPEGDIIACSPLLSHQDEEAFPNPREWNPERNMKLVDGAFCGFGAGVHKCIGEKFGLLQVKTVLATVLRDYDFELLGPLPEPNYHTMVVGPTASQCRVKYIKKKKAAA | soluble |
| HHMSAIKPDMKINLRMEGNVNGHHFVIDGDGTGKPFEGKQSMDLEVKEGGPLPFAFDILTTAFHYGNRVFAEYPDHIQDYFKQSFPKGYSWERSLTFEDGGICIARNDITMEGDTFYNKVRFHGVNFPANGPVMQKKTLKWEPSTEKMYVRDGVLTGDITMALLLEGNAHYRCDSRTTYKAKEKGVKLPGYHLVDHCIEILSHDKDYNKVKLYEHAVAHSGLPDNARR | soluble |
| MGSDKIHHHHHHMAANRFNGFTDYGIGIGLRIPHYRHILDNKPVVDWFEIISENYMIDGGRPLAVLDAILEQYRVVQHGVSMYFGSVDPLNREHLKRLKNLTRRTKTPWLTDHLCWGSVDGRYTHDLMPLPYTWEAIDVTVAKIKQVRDYLEIPVAVENVSSYAEFHESEMTEWEFLNEVVERADCGILLDVNNIYVSSMNHSFDPHVYVDSVPAERVAQIHIAGHSKYEKYILDTHDHPVIDPVWQLYAHAIRRCGPTATLLEWDDHIPSFEEVHNEALKAKKFLAENAEPVEKKIAAAEARV | not soluble |
| MSLNRGIGVVTLSTLLASPSALARENPPAEDEPAALEALVVTGEKRERSLKDTASSVSLTSARDIDRKQTGNASVAEVINGSPNVVYTDSVGAPIIRGQDTQGPNNGQNVFWGGTVPRATINLDGHYLNYNEMFFGATSVWDVDSIEVFRGPQTTSQGANAIAGAIIVNTKDPTFSPEAAYQAEIGSYHSRRSSIAVSGPLAQDFAGRLAVDYAGRDTFIDYDNPKFQDSGTDQDFRALNARAKLLWLPSGIPGLESKFTFSHNDNNRPTQEAATRPFDKLDHRSTTMPSWEQDTNTSILDVAYDLDNGIRLFNQAQYSLSSVHRTTGAGGEGDADIRQKNASNESRISFGEQEDRISGMGGVYYARTRTDETLHLRGLSAFDDTKKNLGVFGELNYRLSDRWTLTTGLRYQEDRIERSGNSVLAPRPLDYQKTFSAFLPKVSLAFAATPDWTVGGLVSRGYNPGGVSLNLTTRNWAYFKEETIWNYELFTRASLLDGRLLLNGNLFFMDFKDAQYNIPVVVSPGVAQSYTINAEKAHAYGMELDLDYRLRDDLRLKASAGVLRTRIDEMSGNTGYEHNEFARSPGYTLSFGPSWDVTERLNLNAQVRYLDGYYSDTANTKAYSIKAYTLTDARASYRFNDQVQLYGYVKNVFDDRSPTYMQENRGIGGIEASMTQPRTLGIGIKGTFEGHHHHHH | not soluble |
| MGSDKIHHHHHHESSFLNLSDPNYFTESNFWKDKADAESALAAAYSPIKGAMYGYFGAFDGWLNLNGRGDDIYTIKGEEVPMWNIANFLNSPSTGNDPYGALYSGIQRANIVLRYIDQIPASGITEEDRSMIKGEALFLRGYQYFLLVNNYKEVPLRLIPSNEDETNKAAATEAALWAQVEEDLDNAIKCNLPVERSTAKERITKGAAIAMLGKVYATQHKYPEAKQLLGTLLKAPYSYELMDNFEKNFTNEEEFNKESVFELAYSPDGDYSWSNESGICLGCYIPQFIGPVKSGGWAKLMPNSLIVGEFTKETRPSDADTKFDKRMYASLFFDAANYGDKVPNEKWYGNNYSMDDLWEGNEGKMAGGAPSFNVNGTAGKFLIKKNTAYYVDDKAPDNMGNKEGRSSNLRVMRFAEVLLLYAEACAKTNDPDGANYALKQIRQRAGLTEKTFAQAELMNEIEHQCLLEFFAEGHRFDDLKRWYSPSEIQLIFKANGKQGAENFQEKHLYYPIPTSELNNNTAMEQTSLWK | not soluble |
| MIATTSQQSFNLLRTLAVQKASDFADEFYIYMLKDQEASLFLSSQQVHDRLHGSMSKWIADILTNTGDSLADLINHQKKIGQIHARIGIPVDLVERGARRLKWHLYEHIAQVADDKALCFDAMRFASISMDIAIEIMSKTYSQSHDLEHHHHHH | not soluble |
| MGSDKIHHHHHHMTSARRQLIDANATPFYHVINRCVRRAFLCGEDKLTGRSYEHRRGWIVDKIKVLSSIFCIDICAYAVMNNHYHLVLKINVEKAKSLSQREIISRWCQITKGHAVATKYMNGDVLIDGEIMLLDALLAEWHERLSSVSWFMRCLNEEIARKANREDECKGAFWEGRFKSQALLDEQALLACMMYVDLNPIRAGVADSLQSSDFTSIQERISLLNLQRDAFTSLKTQVKSVNKLPQIIHQSLAKFDGPTHQSQQTGIPFHFADYLELIDWTGRAIRLDKKGYIDNQRPKLLHELGIASDAWLTSAKEFRRQYSGISGRWDSMCEFKKQHNSGKWCKGKASSQALHP | not soluble |
| MAHHHHNSGPLEFTVSANTNPATDAVRESILANPGFGKYYTDHMVSIDYTVDEGWHNAQVIPYGPIQLDPSAIVLHYGQEIFEGLKAYRWADGSIVSFRPEANAARLQSSARRLAIPELPEEVFIESLRQLIAVDEKWVPPAGGEESLYLRPFVIATEPGLGVRPSNEYRYLLIASPAGAYFKGGIKPVSVWLSHEYVRASPGGTGAAKFGGNYAASLLAQAQAAEMGCDQVVWLDAIERRYVEEMGGMNLFFVFGSGGSARLVTPELSGSLLPGITRDSLLQLATDAGFAVEERKIDVDEWQKKAGAGEITEVFACGTAAVITPVSHVKHHDGEFTIADGQPGEITMALRDTLTGIQRGTFADTHGWMARLN | soluble |
